Experimental data reported in the Human Domainome abundance scans (Beltran et al. 2025).
± gives the uncertainty stated by the source.

B1: Probable E3 ubiquitin-protein ligase MID2, residues 191 to 235; numbered along this chain, Q9UJV3 (parent)
chain: RGITCLDHENEKVNMYCVSDDQLICALCKLVGRHRDHQVASLNDR

Variants of: B1
Test: abundance fitness (aPCA) (normalised: wild type 0, dead -1); higher = more abundant; growth selection in yeast, the domain comes from the species named
Details: Homo sapiens

Point of comparison: RGITCLDHENEKVNMYCVSDDQLICALCKLVGRHRDHQVASQNDR [L42Q], abundance fitness -0.134 ± 0.078. Against it:
- RGITCLDHENEKVNMYCVSDDQLICALCKLVGRHRDHQVASLNVR [D44V] — within error, -0.211 ± 0.064
- RGITCLDHENEKVNMYCVSDDQLICALCKLVGRHRDHQVASLNYR [D44Y] — within error, -0.285 ± 0.29
- RGITCLDHENEKVNMYCVSDDQLICALCKLVGRHRDHQVASLNQR [D44Q] — within error, -0.234 ± 0.33
- RGITCLDHENEKVNMYCVSDDQLICALCKLVGRHRDHQVASLNKR [D44K] — within error, -0.175 ± 0.083
- RGITCLDHENEKVNMYCVSDDQLICALCKLVGRHRDHQVASLNER [D44E] — within error, 0.003 ± 0.14
- RGITCLDHENEKVNMYCVSDDQLICALCKLVGRHRDHQVASLNCR [D44C] — lower, -0.452 ± 0.17
- RGITCLDHENEKVNMYCVSDDQLICALCKLVGRHRDHQVASLNSR [D44S] — within error, -0.067 ± 0.074
- RGITCLDHENEKVNMYCVSDDQLICALCKLVGRHRDHQVASLNPR [D44P] — within error, -0.061 ± 0.13
- RGITCLDHENEKVNMYCVSDDQLICALCKLVGRHRDHQVASLNFR [D44F] — lower, -0.422 ± 0.12
- RGITCLDHENEKVNMYCVSDDQLICALCKLVGRHRDHQVASLNMR [D44M] — within error, -0.187 ± 0.17
- RGITCLDHENEKVNMYCVSDDQLICALCKLVGRHRDHQVASLNTR [D44T] — within error, -0.122 ± 0.11
- RGITCLDHENEKVNMYCVSDDQLICALCKLVGRHRDHQVASLNWR [D44W] — lower, -0.472 ± 0.13
- RGITCLDHENEKVNMYCVSDDQLICALCKLVGRHRDHQVASLNLR [D44L] — lower, -0.427 ± 0.1
- RGITCLDHENEKVNMYCVSDDQLICALCKLVGRHRDHQVASLNGR [D44G] — within error, -0.075 ± 0.057
- RGITCLDHENEKVNMYCVSDDQLICALCKLVGRHRDHQVASLNAR [D44A] — within error, -0.152 ± 0.062
- RGITCLDHENEKVNMYCVSDDQLICALCKLVGRHRDHQVASLNDD [R45D] — within error, -0.087 ± 0.14
- RGITCLDHENEKVNMYCVSDDQLICALCKLVGRHRDHQVASLNDP [R45P] — higher, 0.041 ± 0.096
- RGITCLDHENEKVNMYCVSDDQLICALCKLVGRHRDHQVASLNDK [R45K] — within error, 0.025 ± 0.11
- RGITCLDHENEKVNMYCVSDDQLICALCKLVGRHRDHQVASLNDI [R45I] — within error, -0.033 ± 0.13
- RGITCLDHENEKVNMYCVSDDQLICALCKLVGRHRDHQVASLNDS [R45S] — higher, 0.084 ± 0.076
- RGITCLDHENEKVNMYCVSDDQLICALCKLVGRHRDHQVASLNDT [R45T] — within error, -0.04 ± 0.1
- RGITCLDHENEKVNMYCVSDDQLICALCKLVGRHRDHQVASLNDG [R45G] — higher, 0.15 ± 0.067
- RGITCLDHENEKVNMYCVSDDQLICALCKLVGRHRDHQVASLNDV [R45V] — within error, -0.105 ± 0.084
- RGITCLDHENEKVNMYCVSDDQLICALCKLVGRHRDHQVASLNDH [R45H] — higher, 0.256 ± 0.29
- RGITCLDHENEKVNMYCVSDDQLICALCKLVGRHRDHQVASLNDQ [R45Q] — higher, 0.033 ± 0.06
- RGITCLDHENEKVNMYCVSDDQLICALCKLVGRHRDHQVASLNDW [R45W] — within error, -0.164 ± 0.082
- RGITCLDHENEKVNMYCVSDDQLICALCKLVGRHRDHQVASLNDM [R45M] — within error, -0.201 ± 0.2
- RGITCLDHENEKVNMYCVSDDQLICALCKLVGRHRDHQVASLNDE [R45E] — higher, 0.276 ± 0.079
- RGITCLDHENEKVNMYCVSDDQLICALCKLVGRHRDHQVASLNDA [R45A] — higher, 0.178 ± 0.12
- RGITCLDHENEKVNMYCVSDDQLICALCKLVGRHRDHQVASLNDF [R45F] — within error, 0.151 ± 0.23
- RGITCLDHENEKVNMYCVSDDQLICALCKLVGRHRDHQVASLNDL [R45L] — within error, -0.253 ± 0.088
- RGITCLDHENEKVNMYCVSDDQLICALCKLVGRHRDHQVASLNDC [R45C] — higher, 0.018 ± 0.072
- RGITCLDHENEKVNMYCVSDDQLICALCKLVGRHRDHQVASRNDR [L42R] — within error, -0.095 ± 0.06
- RGITCLDHENEKVNMYCVSDDQLICALCKLVGRHRDHQVASVNDR [L42V] — within error, -0.016 ± 0.052
- RGITCLDHENEKVNMYCVSDDQLICALCKLVGRHRDHQVASGNDR [L42G] — within error, -0.071 ± 0.055
- RGITCLDHENEKVNMYCVSDDQLICALCKLVGRHRDHQVASCNDR [L42C] — higher, 0.269 ± 0.14
- RGITCLDHENEKVNMYCVSDDQLICALCKLVGRHRDHQVASWNDR [L42W] — within error, -0.198 ± 0.07
- RGITCLDHENEKVNMYCVSDDQLICALCKLVGRHRDHQVASANDR [L42A] — higher, 0.118 ± 0.056
- RGITCLDHENEKVNMYCVSDDQLICALCKLVGRHRDHQVASPNDR [L42P] — within error, -0.363 ± 0.21
- RGITCLDHENEKVNMYCVSDDQLICALCKLVGRHRDHQVASNNDR [L42N] — within error, 0.045 ± 0.13
- RGITCLDHENEKVNMYCVSDDQLICALCKLVGRHRDHQVASTNDR [L42T] — within error, -0.096 ± 0.086
- RGITCLDHENEKVNMYCVSDDQLICALCKLVGRHRDHQVASYNDR [L42Y] — within error, -0.127 ± 0.11
- RGITCLDHENEKVNMYCVSDDQLICALCKLVGRHRDHQVASMNDR [L42M] — within error, -0.031 ± 0.06
- RGITCLDHENEKVNMYCVSDDQLICALCKLVGRHRDHQVASENDR [L42E] — higher, 0.091 ± 0.14
- RGITCLDHENEKVNMYCVSDDQLICALCKLVGRHRDHQVASSNDR [L42S] — higher, 0.046 ± 0.06
- RGITCLDHENEKVNMYCVSDDQLICALCKLVGRHRDHQVASFNDR [L42F] — within error, -0.133 ± 0.16
- RGITCLDHENEKVNMYCVSDDQLICALCKLVGRHRDHQVASKNDR [L42K] — within error, -0.054 ± 0.073
- RGITCLDHENEKVNMYCVSDDQLICALCKLVGRHRDHQVASDNDR [L42D] — within error, -0.046 ± 0.1
- RGITCLDHENEKVNMYCVSDDQLICALCKLVGRHRDHQVWSLNDR [A40W] — within error, -0.155 ± 0.07
- RGITCLDHENEKVNMYCVSDDQLICALCKLVGRHRDHQVDSLNDR [A40D] — higher, 0.043 ± 0.077
- RGITCLDHENEKVNMYCVSDDQLICALCKLVGRHRDHQVMSLNDR [A40M] — within error, -0.216 ± 0.086
- RGITCLDHENEKVNMYCVSDDQLICALCKLVGRHRDHQVESLNDR [A40E] — higher, 0.072 ± 0.069
- RGITCLDHENEKVNMYCVSDDQLICALCKLVGRHRDHQVPSLNDR [A40P] — lower, -0.415 ± 0.095
- RGITCLDHENEKVNMYCVSDDQLICALCKLVGRHRDHQVHSLNDR [A40H] — within error, -0.296 ± 0.18
- RGITCLDHENEKVNMYCVSDDQLICALCKLVGRHRDHQVYSLNDR [A40Y] — within error, -0.2 ± 0.23
